Assay results reported in US10568344B2, “Methods of improving animal performance” (Novozymes A/S, priority 2015, dated 2020).
Read-outs that look alike come from different tables or passages of the source. Marks after values point to notes of the source that are not given here.

Assays:
[1] = tested on: Exiguobacterium undae (DSM14481); assay: Lysozyme activity turbidity assay (optical density drop); assay type: biochemical; details: pH 6
[2] = tested on: Clostridium perfringens DSM756; assay type: cell-based; details: for Diameter of clearing zone: lysozymes 100 μg/ml, bacitracin 50 μg/ml
[3] = In vivo broiler trial 3, growth performance; set-up: species or system male broiler chickens; Motality: unit not given here
Protocol: The in vivo trial was carried out as described in example 7, except the feed was supplemented with the GH25 lysozyme (SEQ ID NO: 1) at 12.5 or 25 mg per kg feed, the GH24 lysozyme (SEQ ID NO: 4) at 12.5 or 25 mg per kg feed or with Avilamycin at an inclusion level of 10 mg/kg. No additional enzymes (e.g. phytase) were added to the feed. The experimental diets (Starter, Grower and Finisher) were based on soybean meal, wheat and rye (12%) as main ingredients (Table 8). The diets were formulated to contain 225 g crude protein and 12.5 MJ/kg MEN for the starter period, 215 g crude protein and 12.8 MJ/kg MEN for the grower period and 205 g crude protein and 13.0 MJ/kg MEN for the finisher period.

[4] = In vivo piglet trial, growth performance; set-up: species or system weaned piglets
Protocol: The trial was performed from Oct. 23 to Dec. 4, 2014 at the Research Center for Animal Nutrition (DSM Nutritional Products France, F-68305 Village-Neuf) according to the official French guidelines for experiments with live animals. One hundred and four castrated male crossbred (Large-White (female)×Redon (male)) weaned piglets having 28 days of age supplied by the commercial farm “[…] du Rhin” located in Balgau (France), were used in a 42-day experiment. The initial bodyweight of the piglets was 7.88±0.675 kg. They were sorted by body weight into 32 groups of 3 or 4 piglets and randomly allotted to each dietary treatment. Each group of animals was placed in one flat-deck cages and allocated to one of the different treatments. Each treatment was replicated with 8 cages using a total of 26 animals (6 cages of 3 animals/treatment and 2 cages of 4 animals/treatment) per treatment. […] Animals were housed in an environmentally controlled room. Room temperature was initially 27° C. and was lowered weekly by about 2° C. until 21-22° C. and relative humidity percentage was 50%. The experimental diets (Pre-Starter and Starter) were fed ad libitum in two feeding phases from day 0 to 14 (phase 1, Pre-starter) and day 14 to 42 (phase 2, Starter). The ingredient composition and the calculated nutrient levels of the experimental diets for phases 1 and 2 are presented in table 11. Both diets were formulated to meet the animals' requirements according NRC (2012) and were fed in pelleted form. Pelleting conditions were at 70° C. for 30 seconds. […] No additional enzymes (e.g. phytase) were added to the feed. […] Appropriate amount of the liquid preparations of lysozyme was diluted in water and sprayed onto the respective pelleted feed to get the final concentrations in the feed corresponding to the different treatments. For procedural balance of all treatments the same volume of water were also sprayed onto the pellets of the control diets. Body weight of the individual animals and feed consumption per pen were recorded on days 14 and 42 of the study. […] The experimental unit was the piglet, except for ADFI and FCR which were measured by cage, and in both cases, treatment was used as class variable. One-factorial ANOVA and Student-Newman-Keuls test was used to assess differences among means in treatment groups.

[5] = tested on: Micrococcus lysodeikticus ATTC No. 4698; assay: Lysozyme activity turbidity assay (optical density drop); details: pH 6
[6] = Finisher (d 36-42), 12.5 mg/kg feed
[7] = Finisher (d 36-42), 25 mg/kg feed
[8] = Grower (d 22-36), 12.5 mg/kg feed
[9] = Grower (d 22-36), 25 mg/kg feed
[10] = Starter (d 1-22), 12.5 mg/kg feed
[11] = Starter (d 1-22), 25 mg/kg feed
[12] = Whole period (d 1-42), 12.5 mg/kg feed
[13] = Whole period (d 1-42), 25 mg/kg feed

B1: SEQ ID NO: 4: mature amino acid sequence of a wild type GH24 lysozyme from Trichophaea saccata (protein, listed as Trichophaea saccata)
chain: YPVKTDLHCRSSPSTSASIVRTYSSGTEVQIQCQTTGTSVQGSNVWDKTQHGCYVADYYVKTGHSGIFTTKCGSSSGGGSCKPPPINAATVALIKEFEGFVPKPAPDPIGLPTVGYGHLCKTKGCKEVPYSFPLTQETATKLLQSDIKTFTSCVSNYVKDSVKLNDNQYGALASWAFNVGCGNVQTSSLIKRLNAGENPNTVAAQELPKWKYAGGKVMPGLVRRRNAEVALFKKPSSVQAHPPKC
modifications: mat_peptide (1)..(245)
In the case of B1, the “Lysozyme activity as measured by Optical Density Drop” value [1] is reported as “++ (pH 6)”, the “Diameter of clearing zone” value ([2]; Experiment 1, 1/2 MHB pH 6) is reported as 11 mm and the “Diameter of clearing zone” value ([2]; Experiment 1, 1/10 MHB pH 7) is reported as 9 mm. For the same molecule, the “Diameter of clearing zone” value ([2]; Experiment 2, 1/2 MHB pH 6) was 10 mm, the “Diameter of clearing zone” value ([2]; Experiment 2, 1/10 MHB pH 7) was 8 mm and the “Zones around the wells challenged with the enzyme” value ([2]; both conditions tested (1/10 MHB pH 7 and ½ MHB pH 6)) was 8-11 mm. The “Benefit over the NC diet” value ([3]; 12.5 mg/kg) was “did not show any benefit”, the FCR [3, 6] was 1.969 and the “FCR, Relative to C (%)” value [3, 6] was 100.4%. The Feed intake [3, 6] was 1560 g/b, the “Feed intake, Relative to C (%)” value [3, 6] was 104.8% and the Weight gain [3, 6] was 795 g/b. The “Weight gain, Relative to C (%)” value [3, 6] was 104.4%, the FCR [3, 7] was 1.919 and the “FCR, Relative to C (%)” value [3, 7] was 97.9%. For the same molecule, the Feed intake [3, 7] was 1524 g/b, the “Feed intake, Relative to C (%)” value [3, 7] was 102.5% and the Weight gain [3, 7] was 800 g/b. The “Weight gain, Relative to C (%)” value [3, 7] was 105.1%, the FCR [3, 8] was 1.692 and the “FCR, Relative to C (%)” value [3, 8] was 98.2%. The Feed intake [3, 8] was 2298 g/b, the “Feed intake, Relative to C (%)” value [3, 8] was 100.5% and the Weight gain [3, 8] was 1359 g/b. For the same molecule, the “Weight gain, Relative to C (%)” value [3, 8] was 102.4%, the FCR [3, 9] was 1.714 and the “FCR, Relative to C (%)” value [3, 9] was 99.5%. For the same molecule, the Feed intake [3, 9] was 2336 g/b, the “Feed intake, Relative to C (%)” value [3, 9] was 102.2% and the Weight gain [3, 9] was 1364 g/b. For the same molecule, the “Weight gain, Relative to C (%)” value [3, 9] was 102.7%, the FCR [3, 10] was 1.469 and the “FCR, Relative to C (%)” value [3, 10] was 102.0%. The Feed intake [3, 10] was 1608 g/b, the “Feed intake, Relative to C (%)” value [3, 10] was 101.9% and the Weight gain [3, 10] was 1095 g/b. For the same molecule, the “Weight gain, Relative to C (%)” value [3, 10] was 99.9%, the FCR [3, 11] was 1.414 and the “FCR, Relative to C (%)” value [3, 11] was 98.1%. The Feed intake [3, 11] was 1603 g/b, the “Feed intake, Relative to C (%)” value [3, 11] was 101.6% and the Weight gain [3, 11] was 1133 g/b. For the same molecule, the “Weight gain, Relative to C (%)” value [3, 11] was 103.4%, the EPEF [3, 12] was 408 and the “EPEF, Relative to C (%)” value [3, 12] was 97.6%. The FCR [3, 12] was 1.683, the “FCR, Relative to C (%)” value [3, 12] was 100.2% and the Feed intake [3, 12] was 5466 g/b. For the same molecule, the “Feed intake, Relative to C (%)” value [3, 12] was 102.1%, the Motality [3, 12] was 11.3 and the Weight gain [3, 12] was 3249 g/b. The “Weight gain, Relative to C (%)” value [3, 12] was 102.0%, the EPEF [3, 13] was 425 and the “EPEF, Relative to C (%)” value [3, 13] was 101.7%. For the same molecule, the FCR [3, 13] was 1.657, the “FCR, Relative to C (%)” value [3, 13] was 98.6% and the Feed intake [3, 13] was 5450 g/b. For the same molecule, the “Feed intake, Relative to C (%)” value [3, 13] was 101.9%, the Motality [3, 13] was 10.0 and the Weight gain [3, 13] was 3290 g/b. The “Weight gain, Relative to C (%)” value [3, 13] was 103.3%, the “EPEF improvement compared to NC diet” value ([3]; whole period, 25 mg/kg) was 2.4% and the “FCR improvement compared to NC diet” value ([3]; whole period, 25 mg/kg) was 1.2%. For the same molecule, the “ADFI, % relative NC” value ([4]; day 0-14, 50 ppm) was 92.5%, the “ADFI, Mean” value ([4]; day 0-14, 50 ppm) was 333 g/day and the “ADWG, % relative NC” value ([4]; day 0-14, 50 ppm) was 91.4%. For the same molecule, the “ADWG, Mean” value ([4]; day 0-14, 50 ppm) was 265 g/day, the “FCR, % relative NC” value ([4]; day 0-14, 50 ppm) was 102.6% and the “FCR, Mean” value ([4]; day 0-14, 50 ppm) was 1.272^b. For the same molecule, the “ADFI, % relative NC” value ([4]; day 0-42, 50 ppm) was 100.8%, the “ADFI, Mean” value ([4]; day 0-42, 50 ppm) was 740^b g/d and the “ADWG, % relative NC” value ([4]; day 0-42, 50 ppm) was 107.8%. For the same molecule, the “ADWG, Mean” value ([4]; day 0-42, 50 ppm) was 538 g/day, the “EPEF, % relative NC” value ([4]; day 0-42, 50 ppm) was 115.3% and the “EPEF, Mean” value ([4]; day 0-42, 50 ppm) was 391. The “FCR, % relative NC” value ([4]; day 0-42, 50 ppm) was 92.9%, the “FCR, Mean” value ([4]; day 0-42, 50 ppm) was 1.379^a and the “ADFI, % relative NC” value ([4]; day 14-42, 50 ppm) was 101.5%. For the same molecule, the “ADFI, Mean” value ([4]; day 14-42, 50 ppm) was 944^c g/d, the “ADWG, % relative NC” value ([4]; day 14-42, 50 ppm) was 111.8% and the “ADWG, Mean” value ([4]; day 14-42, 50 ppm) was 674 g/day. For the same molecule, the “FCR, % relative NC” value ([4]; day 14-42, 50 ppm) was 90.9%, the “FCR, Mean” value ([4]; day 14-42, 50 ppm) was 1.404^a and the “Improvement on FCR compared to the negative control” value ([4]; overall period (day 0 to day 42), 50 mg/kg) was 7.1%. For the same molecule, the “Improvement to FCR compared to NC” value ([4]; starter period, day 15 to day 42, 50 mg/kg) was 9.1%, the “Improvement of ADWG compared to the negative control diet” value ([4]; starter period, 50 mg/kg) was 11.8% and the “EPEF improvement compared to the negative control” value ([4]; whole period, 50 mg/kg) was 15.3%. For the same molecule, the “Improvement of ADWG compared to the negative control diet” value ([4]; whole period, 50 mg/kg) was 7.8% and the “Lysozyme activity as measured by Optical Density Drop” value [5] was “++ (pH 6)”.
